Experimental data taken from patent US12280095B2, “Tissue modifier and uses therefor” (Fibrosoft Pte Ltd, priority 2021, dated 2025).

Tested on: Dupuytren's disease
Test: Treatment of Dupuytren's disease patients by intralesional injection of tPA in combination with hyaluronidase
Type: in vivo, human

B1: ALTEPLASE: tissue plasminogen activator (tPA), collagenase-producing agent; comparator when administered on its own (protein, UniProt P00750 36-562, looked up)
Tissue-type plasminogen …: SYQVICRDEKTQMIYQQHQSWLRPVLRSNRVEYCWCNSGRAQCHSVPVKSCSEPRCFNGGTCQQALYFSDFVCQCPEGFAGKCCEIDTRATCYEDQGISYRGTWSTAESGAECTNWNSSALAQKPYSGRRPDAIRLGLGNHNYCRNPDRDSKPWCYVFKAGKYSSEFCSTPACSEGNSDCYFGNGSAYRGTHSLTESGASCLPWNSMILIGKVYTAQNPSAQALGLGKHNYCRNPDGDAKPWCHVLKNRRLTWEYCDVPSCSTCGLRQYSQPQFRIKGGLFADIASHPWQAAIFAKHRRSPGERFLCGGILISSCWILSAAHCFQERFPPHHLTVILGRTYRVVPGEEEQKFEVEKYIVHKEFDDDTYDNDIALLQLKSDSSRCAQESSVVRTVCLPPADLQLPDWTECELSGYGKHEALSPFYSERLKEAHVRLYPSSRCTSQHLLNRTVTDNMLCAGDTRSGGPQANLHDACQGDSGGPLVCLNDGRMTLVGIISWGLGCGQKDVPGVYTKVTNYLDWIRDNMRP
mean time required to observe discernible reduction in volume of the fibromatosis, reduction of contracture and improvement in the range of motion (ALTEPLASE administered on its own, patients with Dupuytren's disease): 4-6 weeks | time required to obtain similar effects (volume reduction, flexion improvement) (ALTEPLASE alone): 4-6 weeks
